According to US12006519B2, “Polymerase mutants and use with 3′-OH unblocked reversible terminators” (Agilent Technologies, Inc., priority 2021, dated 2024):

Tested on: Lightning Terminators
Assay: Sequencing-by-synthesis with Lightning Terminators (87 cycles)
Assay type: biochemical
Parameters: ARL (87 cycles) / Lead + Lag / Leading / Lagging: unit not given here
Settings: Therminator mutants, same unit concentrations (0.08 U/ul in cycle 1 and 0.008 U/ul in cycles 2-n)
Protocol: This section generally describes how the present mutant polymerases were used for sequencing-by-synthesis, and how their performance in sequencing was measured. Sequencing was performed on a breadboard instrument, essentially as described in Hertzog D, et al., “A high-performance, low-cost approach to next-generation sequencing”, BioOptics World. 2011 Issue November/December 2011.
In this example, mutations were introduced into the DNA polymerase of SEQ ID NO: 12 (Therminator) in an attempt to improve its capability in sequencing with 3′-OH unblocked terminators. Such mutations to Thermococcus sp. 9° N DNA polymerase are disclosed in U.S. Pat. Nos. 9,273,352; 9,677,059; 9,765,309; U.S. Pat. App. Publication No. 20160032377. The following table summarizes sequencing metrics with Lightning Terminators.
As used in this example and those that follow, “Lead+Lag” refers to dephasing errors in Sequencing by Synthesis technology caused by either reading the next base signal (Lead) or reading the previous base signal (Lag) relative to current base signals. Such errors may arise because of imperfect incoporation of reversible terminators by the polymerase.
In this example, mutant polymerases were created by introducing certain mutations (D141A/E143A/A485L) which are present in Therminator. The three mutations were introduced at the equivalent positions in JDF3 (Thermococcus sp. JDF3) and Pfu (Pyrococcus furisosus) DNA polymerases. The new mutant polymerases were then evaluated for their performance in sequencing with Lightning Terminators, as described above.

Row | Molecule | % reads >85 bp [%] | ARL (87 cycles) | Lead + Lag
1 | K476W: Therminator with mutation K476W (9° N DNA pol numbering) (protein, UniProt Q56366 1-775, looked up, variant D141A E143A A485L K476W, Therminator) DNA polymerase: MILDTDYITENGKPVIRVFKKENGEFKIEYDRTFEPYFYALLKDDSAIEDVKKVTAKRHGTVVKVKRAEKVQKKFLGRPIEVWKLYFNHPQDVPAIRDRIRAHPAVVDIYEYDIPFAKRYLIDKGLIPMEGDEELTMLAFAIATLYHEGEEFGTGPILMISYADGSEARVITWKKIDLPYVDVVSTEKEMIKRFLRVVREKDPDVLITYNGDNFDFAYLKKRCEELGIKFTLGRDGSEPKIQRMGDRFAVEVKGRIHFDLYPVIRRTINLPTYTLEAVYEAVFGKPKEKVYAEEIAQAWESGEGLERVARYSMEDAKVTYELGREFFPMEAQLSRLIGQSLWDVSRSSTGNLVEWFLLRKAYKRNELAPNKPDERELARRRGGYAGGYVKEPERGLWDNIVYLDFRSLYPSIIITHNVSPDTLNREGCKEYDVAPEVGHKFCKDFPGFIPSLLGDLLEERQKIKRKMKATVDPLEWKLLDYRQRLIKILANSFYGYYGYAKARWYCKECAESVTAWGREYIEMVIRELEEKFGFKVLYADTDGLHATIPGADAETVKKKAKEFLKYINPKLPGLLELEYEGFYVRGFFVTKKKYAVIDEEGKITTRGLEIVRRDWSEIAKETQARVLEAILKHGDVEEAVRIVKEVTEKLSKYEVPPEKLVIHEQITRDLRDYKATGPHVAVAKRLAARGVKIRPGTVISYIVLKGSGRIGDRAIPADEFDPTKHRYDAEYYIENQVLPAVERILKAFGYRKEDLRYQKTKQVGLGAWLKVKGKK | 31.8 | 70.2 | 1.4
2 | L478S: Therminator with mutation L478S (9° N DNA pol numbering) (protein, UniProt Q56366 1-775, looked up, variant D141A E143A A485L L478S, Therminator) DNA polymerase: MILDTDYITENGKPVIRVFKKENGEFKIEYDRTFEPYFYALLKDDSAIEDVKKVTAKRHGTVVKVKRAEKVQKKFLGRPIEVWKLYFNHPQDVPAIRDRIRAHPAVVDIYEYDIPFAKRYLIDKGLIPMEGDEELTMLAFAIATLYHEGEEFGTGPILMISYADGSEARVITWKKIDLPYVDVVSTEKEMIKRFLRVVREKDPDVLITYNGDNFDFAYLKKRCEELGIKFTLGRDGSEPKIQRMGDRFAVEVKGRIHFDLYPVIRRTINLPTYTLEAVYEAVFGKPKEKVYAEEIAQAWESGEGLERVARYSMEDAKVTYELGREFFPMEAQLSRLIGQSLWDVSRSSTGNLVEWFLLRKAYKRNELAPNKPDERELARRRGGYAGGYVKEPERGLWDNIVYLDFRSLYPSIIITHNVSPDTLNREGCKEYDVAPEVGHKFCKDFPGFIPSLLGDLLEERQKIKRKMKATVDPLEKKSLDYRQRLIKILANSFYGYYGYAKARWYCKECAESVTAWGREYIEMVIRELEEKFGFKVLYADTDGLHATIPGADAETVKKKAKEFLKYINPKLPGLLELEYEGFYVRGFFVTKKKYAVIDEEGKITTRGLEIVRRDWSEIAKETQARVLEAILKHGDVEEAVRIVKEVTEKLSKYEVPPEKLVIHEQITRDLRDYKATGPHVAVAKRLAARGVKIRPGTVISYIVLKGSGRIGDRAIPADEFDPTKHRYDAEYYIENQVLPAVERILKAFGYRKEDLRYQKTKQVGLGAWLKVKGKK | 19.6 | 65.8 | 1.6
3 | T590I: Therminator with mutation T590I (9° N DNA pol numbering) (protein, UniProt Q56366 1-775, looked up, variant D141A E143A A485L T590I, Therminator) DNA polymerase: MILDTDYITENGKPVIRVFKKENGEFKIEYDRTFEPYFYALLKDDSAIEDVKKVTAKRHGTVVKVKRAEKVQKKFLGRPIEVWKLYFNHPQDVPAIRDRIRAHPAVVDIYEYDIPFAKRYLIDKGLIPMEGDEELTMLAFAIATLYHEGEEFGTGPILMISYADGSEARVITWKKIDLPYVDVVSTEKEMIKRFLRVVREKDPDVLITYNGDNFDFAYLKKRCEELGIKFTLGRDGSEPKIQRMGDRFAVEVKGRIHFDLYPVIRRTINLPTYTLEAVYEAVFGKPKEKVYAEEIAQAWESGEGLERVARYSMEDAKVTYELGREFFPMEAQLSRLIGQSLWDVSRSSTGNLVEWFLLRKAYKRNELAPNKPDERELARRRGGYAGGYVKEPERGLWDNIVYLDFRSLYPSIIITHNVSPDTLNREGCKEYDVAPEVGHKFCKDFPGFIPSLLGDLLEERQKIKRKMKATVDPLEKKLLDYRQRLIKILANSFYGYYGYAKARWYCKECAESVTAWGREYIEMVIRELEEKFGFKVLYADTDGLHATIPGADAETVKKKAKEFLKYINPKLPGLLELEYEGFYVRGFFVIKKKYAVIDEEGKITTRGLEIVRRDWSEIAKETQARVLEAILKHGDVEEAVRIVKEVTEKLSKYEVPPEKLVIHEQITRDLRDYKATGPHVAVAKRLAARGVKIRPGTVISYIVLKGSGRIGDRAIPADEFDPTKHRYDAEYYIENQVLPAVERILKAFGYRKEDLRYQKTKQVGLGAWLKVKGKK | 32.2 | 68.1 | 1.3
4 | D718N: Therminator with mutation D718N (9° N DNA pol numbering) (protein, UniProt Q56366 1-775, looked up, variant D141A E143A A485L D718N) DNA polymerase: MILDTDYITENGKPVIRVFKKENGEFKIEYDRTFEPYFYALLKDDSAIEDVKKVTAKRHGTVVKVKRAEKVQKKFLGRPIEVWKLYFNHPQDVPAIRDRIRAHPAVVDIYEYDIPFAKRYLIDKGLIPMEGDEELTMLAFAIATLYHEGEEFGTGPILMISYADGSEARVITWKKIDLPYVDVVSTEKEMIKRFLRVVREKDPDVLITYNGDNFDFAYLKKRCEELGIKFTLGRDGSEPKIQRMGDRFAVEVKGRIHFDLYPVIRRTINLPTYTLEAVYEAVFGKPKEKVYAEEIAQAWESGEGLERVARYSMEDAKVTYELGREFFPMEAQLSRLIGQSLWDVSRSSTGNLVEWFLLRKAYKRNELAPNKPDERELARRRGGYAGGYVKEPERGLWDNIVYLDFRSLYPSIIITHNVSPDTLNREGCKEYDVAPEVGHKFCKDFPGFIPSLLGDLLEERQKIKRKMKATVDPLEKKLLDYRQRLIKILANSFYGYYGYAKARWYCKECAESVTAWGREYIEMVIRELEEKFGFKVLYADTDGLHATIPGADAETVKKKAKEFLKYINPKLPGLLELEYEGFYVRGFFVTKKKYAVIDEEGKITTRGLEIVRRDWSEIAKETQARVLEAILKHGDVEEAVRIVKEVTEKLSKYEVPPEKLVIHEQITRDLRDYKATGPHVAVAKRLAARGVKIRPGTVISYIVLKGSGRIGDRAIPANEFDPTKHRYDAEYYIENQVLPAVERILKAFGYRKEDLRYQKTKQVGLGAWLKVKGKK | 17.9 | 65.6 | 1.8
5 | A639F: Therminator with mutation A639F (9° N DNA pol numbering) (protein, UniProt Q56366 1-775, looked up, variant D141A E143A A485L A639F, Therminator) DNA polymerase: MILDTDYITENGKPVIRVFKKENGEFKIEYDRTFEPYFYALLKDDSAIEDVKKVTAKRHGTVVKVKRAEKVQKKFLGRPIEVWKLYFNHPQDVPAIRDRIRAHPAVVDIYEYDIPFAKRYLIDKGLIPMEGDEELTMLAFAIATLYHEGEEFGTGPILMISYADGSEARVITWKKIDLPYVDVVSTEKEMIKRFLRVVREKDPDVLITYNGDNFDFAYLKKRCEELGIKFTLGRDGSEPKIQRMGDRFAVEVKGRIHFDLYPVIRRTINLPTYTLEAVYEAVFGKPKEKVYAEEIAQAWESGEGLERVARYSMEDAKVTYELGREFFPMEAQLSRLIGQSLWDVSRSSTGNLVEWFLLRKAYKRNELAPNKPDERELARRRGGYAGGYVKEPERGLWDNIVYLDFRSLYPSIIITHNVSPDTLNREGCKEYDVAPEVGHKFCKDFPGFIPSLLGDLLEERQKIKRKMKATVDPLEKKLLDYRQRLIKILANSFYGYYGYAKARWYCKECAESVTAWGREYIEMVIRELEEKFGFKVLYADTDGLHATIPGADAETVKKKAKEFLKYINPKLPGLLELEYEGFYVRGFFVTKKKYAVIDEEGKITTRGLEIVRRDWSEIAKETQARVLEAILKHGDVEEFVRIVKEVTEKLSKYEVPPEKLVIHEQITRDLRDYKATGPHVAVAKRLAARGVKIRPGTVISYIVLKGSGRIGDRAIPADEFDPTKHRYDAEYYIENQVLPAVERILKAFGYRKEDLRYQKTKQVGLGAWLKVKGKK | 6.9 | 58.5 | 2.3
